{"source": "the DeepSol protein solubility set"}
{"assay": "soluble on expression in E. coli; label from the status in PepcDB or PDB records"}
{"sequence": "MGHHHHHHSHAEDATERACGLTMDPECAQLLPALCAVLVDPRQPVADDTCLEKLLDWFKTVTEGESSVVLLQEHPCLVELLSHVLKVQDLSSGVLSFSLRLAGTFAAQENCFQYLQQGELLPGLFGEPGPLGRATWAVPTVRSGWIQGLRSLAQHPSALRFLADHGAVDTIFSLQGDSSLFVASAASQLLVHVLALSMRGGAEGQPCLPGGDWPACAQKIMDHVEESLCSAATPKVTQALNVLTTTFGRCQSPWTEALWVRLSPRVACLLERDPIPAAHSFVDLLLCVARSGPRDAAGGPGWATVFLG", "soluble on expression in E. coli": "not soluble"}
{"sequence": "MGHHHHHHSHALLEKEILEKVSSPFIVSLAYAFESKTHLCLVMSLMNGGDLKFHIYNVGTRGLDMSRVIFYSAQIACGMLHLHELGIVYRDMKPENVLLDDLGNCRLSDLGLAVEMKGGKPITQRAGTNGYMAPEILMEKVSYSYPVDWFAMGCSIYEMVAGRTPFKDYKEKVSKEDLKQRTLQDEVKFQHDNFTEEAKDICRLFLAKKPEQRLGSR", "soluble on expression in E. coli": "not soluble"}
{"sequence": "MGHHHHHHSHDRVNGVAKEYVIYGYGEPLLYPDFFKRIEGFDGKVVISTNGMLDSDILDLADKVGVSIDVNDKFRKGLEVEKALEVLRKLGERGIAEVVVTKDNLELLPAFFERIAEHGSGMLATNVVASNPAIYEQGVYFECSRITVEKVLGLDESILVEAIKDCSRGGGEALRRYKHLLKEVYSKGYSINLLAIFGRKGRVETAFKA", "soluble on expression in E. coli": "soluble"}
{"sequence": "MGHHHHHHSHGTRAFGARRNTIDSTSSFSQFRNLSHRSLSIGRASGTQGSLDTGSDLGDFMDYDPNLLDDPQWPCGKHKRVLIFPSYMTTVIDYVKPSDLKKDMNETFKEKFPHIKLTLSKIRSLKREMRKLAQEDCGLEEPTVAMAFVYFEKLALKGKLNKQNRKLCAGACVLLAAKIGSDLKKHEVKHLIDKLEEKFRLNRRELIAFEFPVLVALEFALHLPEHEVMPHYRRLVQSS", "soluble on expression in E. coli": "soluble"}
{"sequence": "MGHHHHHHSHGYRSVRERTSTSGTHRDREDSKFRRTRPLECQDALETAARAEGLSLDASMHSQLRILDEEHPKGKYHHGLSALKPIRTTSKHQHPVDNAGLFSCMTFSWLSSLARVAHKKGELSMEDVWSLSKHESSDVNCRRLERLWQEELNEVGPDAASLRRVVWIFCRTRLILSIVCLMITQLAGFSGPPTDLRKEGMNLQTLRLRSSNKHQRFPGLPRAPVYQKLLERMKH", "soluble on expression in E. coli": "soluble"}
{"sequence": "MGHHHHHHSHHRFSINGHFYNHKTSVFTPAYGSVTNVRINSTMTTPQVLKLLLNKFKIENSAEEFALYVVHTSGEKQKLKATDYPLIARILQGPCEQISKVFLMEKDQVEEVTYDVAQYIKFEMPVLKSFIQKLQEEEDREVKKLMRKYTVLRLMIRQRLEEIAETPATI", "soluble on expression in E. coli": "not soluble"}
{"sequence": "MGHHHHHHSHMAKQPTVLWAQRESLVYLTIEVDEAKIEELKGEGNKLHFQGSSKTDKYEATLEFFDEIDPASVKHTGSSTRVVEITVQKKTPAWWPRLLQNKGKVHWLKVDFGKWKDEDEDDEAEDAGAGIGGGMANGFDLNQYMSQMGGAGGADFGGLEDDEEDDDMPDLEDNEEEEGKNGTRA", "soluble on expression in E. coli": "soluble"}
{"sequence": "MGHHHHHHSHMATSEILPSFVATMDASNFSFWQVLCSWLSNSPNYEEITKWYLGWKSMFSDQVLAHPSVKDKFNEALDIMNRAVSSNVGAYMQPGARENIAYLTHTERRKDFQYEAMQERREAENMAQRGIGVAASSVPMNFKDLIETKAEEHNIVFMPVIGKRHEGKQLYTFGRIVIYIDRGVVFVQGEKTWVPTSLQSLIDMAK", "soluble on expression in E. coli": "not soluble"}
{"sequence": "MGHHHHHHSHMCSSGGPVDRAPDSSKDGKNHHKTMGHYNHNDSLRKTQINSLKNSVACPGAQKAITSSEAVDRFMPRTTQLQERKRRREDDRKLGTFLQTNPTGNEIMIGPLLPDISKVDMHDDSLNTTANLIRHKLKEVISSVPKPPEDKPEDVHTSRPLKQRRRI", "soluble on expression in E. coli": "soluble"}
{"sequence": "MGHHHHHHSHMDKNVISVKIMEEKRDESTGVIYRKRIAICQNVVPEILRKVSILKVPNIQLEEESWLNPRERNMAIRSHCLTWTQYASMKEESVFRESMENPNWTEFIQRGRISITGVGFLNCVLETFASTFLRQGAQKGIRIMEMLLKEQCGAPLAE", "soluble on expression in E. coli": "not soluble"}
{"sequence": "MGHHHHHHSHMEFVTNYTLEELKKRFTELGLEPYRAKQVFRWVYKKFVTDFEKMTDLGKKHRELLKEHFAFHPLEKLDRVEAPDAVKYLFKTKDGHILETVLIKERDHYTLCVSSQIGCAVGCTFCATALDGLKRNLSTAEIIDQYLQVQQDLGEEKIRNVVFMGMGEPLANYENVRKAVEIMVSPEGLDLSKRRITISTSGIVAQIKRMAQDPVMKEVNLAVSLNAVSQKKREELMPLTKTNTLEELMEVLKNYPLPKYRRITLEYVLIKGVNDSPNDAERLAKLIGRHKKKFKVNLIPFNPDPNLPYERPALTDIMKFQKVLWKYGISNFVRFSKGVEVFGACGQLRTQRLQLQRV", "soluble on expression in E. coli": "soluble"}
{"sequence": "MGHHHHHHSHMEGTQETYTVAHEENVRFVSEAWQQVQQQLDGGPAGEGGPRPVQYVERTPNPRLQNFVPIDLDEWWGAAVPGENHQLFLVAAGRGRCYTADLSPGEKHGALPTHCAWLGAGHT", "soluble on expression in E. coli": "not soluble"}
{"sequence": "MGHHHHHHSHMEYSYIPSFALYNNADMFQFFPRNKRLSTHQKSCLDEHARKMAVFMMKRQEEYRYYENLANQEQFSDDAHFSDNGMDSGFCSGATSTGQSASTSPAPVQLIPNPFFDPEAKTQSPVKLVDNPELFMESKKKSARISA", "soluble on expression in E. coli": "not soluble"}
{"sequence": "MGHHHHHHSHMFIASKKSYFEAVYRSTVSSHSEEFWKSDDPVYFTQYKKQCNRLPNAYLGTLHSASKYSENFRHYVATFSNSPLDFPQSVFNERNPCEYSVPYLDSALQCSAKTLVGCSVSTTERNEYEVCKEATRCFKDAMSHKVLKVFLSNLSWFLKGHYKSKQAFLEPFQKQLILHSFMFVASIKCPETTTKLFDEFKFLLDMLYFDNTDLLTFLQKSPAFLIPRRHGKTWIVTAIISMLLTSVDDLHIGYVAHQKHVSLAVFLEISNILLAWFPRKNIDIKKENGVILYSHPGKKSSTLMCATCFNKNVSVI", "soluble on expression in E. coli": "not soluble"}
{"sequence": "MGHHHHHHSHMFYLAAAVSDFYVPVSEMPEHKIQSSGGPLQITMKMVPKLLSPLVKDWAPKAFIISFKLETDPAIVINRARKALEIYQHQVVVANILESRQSFVFIVTKDSETKLLLSEEEIEKGVEIEEKIVDNLQSRHTAFIGDRN", "soluble on expression in E. coli": "not soluble"}
{"sequence": "MGHHHHHHSHMIRDLEYYDSPILRKVAAPVTEITDELRQLVLDMSETMAFYKGVGLAAPQVGQSISLFIMGVERELEDGELVFCDFPRVFINPVITQKSEQLVYGNEGCLSIPGLRGEVARPDKITVSAKNLDGQQFSLALEGFLASIVMHETDHLHGVLYIDRMSDKDKTKQFKNNLEKIRRKYSILRGL", "soluble on expression in E. coli": "soluble"}
{"sequence": "MGHHHHHHSHMKALLSIEMDMQVPFHDVDSMGITWHGNYLRYFEVARCKLLDELGYNYRQMRASNYAWPIIDVQIKYVKPSTFEQHITVRAELVEWENRLKINYQIRDTATGERITKGYTIQAAVDMTSQEMCFVTPEVFRSKIAPLLAKVDNE", "soluble on expression in E. coli": "soluble"}
{"sequence": "MGHHHHHHSHMKKEHVLHCQFSAWYPFFRGVTIKSVILPLPQNVKDYLLDDGTLVVSGRDDPPTHSQPDSDDEAEEIQWSDDENTATLTAPEFPEFATKVQEPINSLGGSVFPKLNWSAPRDAYWIAMNSSLKCKTLSDIFLLFKSSDFITRDFTQPFIHCTDDSPDPCIEYELVLRKWCELIPGAEFRCFVKENKLIGISQRDYTQYYDHISKQKEEIRRCIQDFFKKHIQYKFLDEDFVFDIYRDSRGKVWLIDFNPFGEVTDSLLFTWEELISENNLNGDFSEVDAQEQDSPAFRCTNSEVTVQPSPYLSYRLPKDFVDLSTGRDAHKLIDFLKLKRNQQEDD", "soluble on expression in E. coli": "not soluble"}
{"sequence": "MGHHHHHHSHMKKLICISLYEDLSMTTYDLSKVDNAELIGIVENASEGTLFVFTCDRPNGSSVIMCPGGGFLKTNLENEGIDFAEWFTKLGITYIVFKYRMPHGNPDVPEQDTRLALKVVREKFPEFCDKLGVMGASIGGYLATFSATLLPDDEKPDFQILMYPVVSVDDRLTHFPCRERMFGHSYSPDKMEQYSPIEHITSGTPAAFIVAAADDAVVSPLNGIMYAARLQKADIPISLHIYPAGGHGFGYNDSFVYKQEWLQELGEWLAKL", "soluble on expression in E. coli": "soluble"}
{"sequence": "MGHHHHHHSHMKQVAVISGKGGTGKTTFSATIHALEGGVVADCDVDAPNLHILLKPQILKAEDFIASKKARIMPEKCSSCGLCYDLCRFGAVVAEDGYYVDEKKCEGCAFCFNVCPERAIEMENVKTGDLYVSKTEWGYFVHARLKPGEENTGRLVTEVKNRAKEIAEESNAEFLIVDSAPGVGCPVMASLTGVDAAIIVTEPTVSGLSDMLRILELCEHFRIRPFVVVNKFDLNVNIASEIESYCSENGVEFAGRVPFDKAIPEQIANLNFPFSGKAADKMVEIWKKLRE", "soluble on expression in E. coli": "not soluble"}
{"sequence": "MGHHHHHHSHMLSPNPLNSRAVEDISSSRTNPYSYAMSTEEARFLTYHMWPLTFLSPSELARAGFYYIGPGDRVACFACGGKLSNWEPKDDAMSEHRRHFPNCPFLENSLETLRFSISNLSMQTHAARMRTFMYW", "soluble on expression in E. coli": "not soluble"}
{"sequence": "MGHHHHHHSHMLSVHTDMASVTKAMAAPESGLEVRDRMWLKITIPNAFLGSDVVDWLYHHVEGFPERREARKYASGLLKAGLIRHTVNKITFSEQCYYVFGDLSGGCESYLVNLSLNDNDGSSGASDQDTLAPLPGATPWPLLPTF", "soluble on expression in E. coli": "soluble"}
{"sequence": "MGHHHHHHSHMMPAERRLPLSFVLDVLEGRAQHPGVLYVQKQCSNLPSELPQLLPDLESHVPWASEALGKMPDAVNFWLGEAAAVTSLHKDHYENLYCVVSGEKHFLFHPPSDRPFIPYELYTPGTYQPSDRPFIPYELYTPATYQLTEEGTFKVVDEEAMEKVPWIPLDPLAPDLARYPSYSQAQALRCMVRAGEMLYLPALWFHHVQQSQGCIAVNFWYDMEYDLKYSYFQLLDSLTKASGLD", "soluble on expression in E. coli": "soluble"}
{"sequence": "MGHHHHHHSHMNKDLLRRVLVLMNSKHTFLALCALRFMRRIIGLKDEFYNRYITKGNLFEPVINALLDNGTRYNLLNSAVIELFEFIRVEDIKSLTAHIVENFYKALESIEYVQTFKGLKTKYEQEKDRQNQKLNSVPSILRSNRFRRDAKALEEDEEMWFNEDEEEEGKAVVAPVEKPKPEDDFPDNYEKFMETKKAKESEDKENLPKRTSPGGFKFTFSHSASAANGTNSKSVVAQIPPATSNGSSSKTTNLPTSVTATKGSLVGLVDYPDDEEEDEEEESSPRKRPRLGS", "soluble on expression in E. coli": "not soluble"}
{"sequence": "MGHHHHHHSHMPMYQVKPYHGGGAPLRVELPTCMYRLPNVHGRSYGPAPGAGHVQEESNLSLQALESRQDDILKRLYELKAAVDGLSKMIQTPDADLDVTNIIQADEPTTLTTNALDLNSVLGKDYGALKDIVINANPGSPPLSLLVLHRLLCEHFRVLSTVHTHSSVKSVPENLLKCFGEQNKKQPRQDYQLGFTLIWKNVPKTQMKFSIQTMCPIEGEGNIARFLFSLFGQKHNAVNATLIDSWVDIAIFQLKEGSSKEKAAVFRSMNSALGKSPWLAGNELTVADVVLWSVLQQIGGCSVTVPANVQRWMRSCENLAPFNTALKLLK", "soluble on expression in E. coli": "not soluble"}
{"sequence": "MGHHHHHHSHMPTDNDLKAAILELLRDLDVLLVAHFYQKDEIVELAHYTGDSLELAKIASQSDKNLIVFCGVHFMGESVKALAFDKQVIMPKLSCCSMARMIDSHYYDRSVHLLKECGVKEFYPITYINSNAEVKAKVAKDDGVVCTSRNASKIFNHALKQNKKIFFLPDKCLGENLALENGLKSAILGANSQEEIKNADVVCYNGFCSVHQLFKLEDIEFYRQKYPDILIAVHPECEPSVVSNADFSGSTSQIIEFVEKLSPNQKVAIGTESHLVNRLKAKRHHQNTFILSSTLALCPTMNETTLKDLFEVLKAYKNHRAYNTIELKDEVARLAKLALTKMMELS", "soluble on expression in E. coli": "not soluble"}
